Test results published in patent US8809287B2, “Compositions and methods for altering Wnt autocrine signaling” (Icahn School of Medicine at Mount Sinai, priority 2004, dated 2014).

Experiments:
uncomplexed β-catenin [1] = assay: GST-E-cadherin binding assay / immunoblot, NIH3T3 cells expressing β-catenin under Tet promoter; format: cell-based, mouse; details: β-catenin under tet regulatable promoter, purified DKK1 (10 nM)
Protocol: (§1) β-catenin levels were assessed using the GST-E-cadherin binding assay, which has been previously described (Bafico et al., (1998) Oncogene 16:2819-2825). Briefly, bacterially expressed GST-E-cadherin was purified with glutathione-Sepharose beads and incubated with 1 mg of each cell lysate. The GST-E-cadherin/[…]-catenin complex bound to the beads was recovered by centrifugation and analyzed by SDS-PAGE followed by immunoblotting. The uncomplexed β-catenin was detected using a monoclonal antibody to β-catenin (Transduction Laboratories). Unphosphorylated β-catenin was detected with a monoclonal antibody specific for β-catenin dephosphorylated at residues 27-37 (Alexis, Läufelfingen, Switzerland). FRP1-HA and DKK1-HA were detected with an anti-HA monoclonal antibody (Hybridoma Center, Mount Sinai School of Medicine, New York). […]

uncomplexed β-catenin [2] = assay: GST-E-cadherin binding assay / immunoblot of uncomplexed β-catenin, Wnt-3a expressing NIH3T3 cells; format: cell-based, mouse; details: NIH3T3 cells stably expressing Wnt-3a; purified DKK1 (10 nM)
Protocol: as §1

uncomplexed β-catenin [3] = assay: Uncomplexed β-catenin in HCT116 wild type or mutant β-catenin allele clones; format: cell-based, human; details: FRP1-HA transfection
Protocol: (§2) β-catenin levels were assessed using the GST-E-cadherin binding assay, which has been previously described (Bafico et al., (1998) Oncogene 16:2819-2825). Briefly, bacterially expressed GST-E-cadherin was purified with glutathione-Sepharose beads and incubated with 1 mg of each cell lysate. The GST-E-cadherin/[…]-catenin complex bound to the beads was recovered by centrifugation and analyzed by SDS-PAGE followed by immunoblotting. The uncomplexed β-catenin was detected using a monoclonal antibody to β-catenin (Transduction Laboratories). Unphosphorylated β-catenin was detected with a monoclonal antibody specific for β-catenin dephosphorylated at residues 27-37 (Alexis, Läufelfingen, Switzerland). FRP1-HA and DKK1-HA were detected with an anti-HA monoclonal antibody (Hybridoma Center, Mount Sinai School of Medicine, New York).
HCT116 parental cells and clones expressing either the wild type or mutant β-catenin allele were transfected with FRP1-HA and subjected to the GST-E-cadherin binding assay (described in Example 3) to examine the effect of FRP1 on uncomplexed β-catenin levels. Uncomplexed β-catenin was detected with anti-β-catenin antibody. The levels of FRP1 in the lysates were detected with an anti-HA antibody. […]

uncomplexed β-catenin [4] = assay: Uncomplexed β-catenin in MDAMB231 breast tumor cells; format: cell-based, human; details: FRP1-HA retrovirus
Protocol: as §2
(§3) Breast (MDAMB231, ATCC No. HTB-26) and ovarian A1847 tumor cell lines were infected with vector alone or FRP 1-HA (described in Example 1) retroviruses and marker selected. […] Breast (MDAMB231) and ovarian A1847 tumor cell lines were analyzed for uncomplexed β-catenin and FRP 1-HA by immunoblot analysis with either an anti-β-catenin antibody (Transduction Laboratories) or an anti-HA antibody (Hybridoma Center, Mount Sinai School of Medicine, New York). […]

ID2 = assay: Northern blot of Id2 in HCT116 clones; format: cell-based, human; details: HCT116 wild type β-catenin allele clone
Text: (§4) We next assessed the effects of FRP1 inhibition on the expression of Id2, Cyclin D1 and Myc, known targets of Wnt/β-catenin in colorectal cancer (Rockman et al. (2001) J. Biol. Chem. 276:45113-45119; Tetsu and McCormick (1999) Nature 398:422-426; He et al. (1998) Science 281:1509-1512). RNAs were extracted from HCT116 parental cells, and either wild type or mutant β-catenin allele containing clones transfected with either vector control or FRP1-HA using Triazol (Invitrogen). The RNAs were separated by (1%) agarose gel electrophoresis and transferred to a nylon membrane (Hybond®, Pharmacia). Probes were labeled by the Random Prime Labelling System method (Amersham Biosciences), and hybridization was performed overnight utilizing the Hybrisol I solution (Serologicals Corporation) according to the manufacturer's instructions. Normalization was performed utilizing a commercial human GADPH control probe (BD Biosciences Clontech).

[5] = tested on: TCF-dependent reporter activity; assay: TOP-Glow/FOP-Glow TCF reporter assay in HCT116 wild type β-catenin allele clone; format: cell-based, human
Protocol: TCF responsive elements operably linked to a reporter (TOP-Glow, wild type, or FOP-Glow, mutant) were analyzed for transcriptional activity in […]. HCT116 (ATCC No. CCL-247) cells containing the wild type β-catenin allele were plated at 3×10^5 per well in 6-well plates and co-transfected with 1 μg of either the TOP-glow or FOP-glow plasmids (Upstate Biotechnology) and 0.001 μg of the Renilla control plasmid (pRL-CMV) utilizing FuGene® (Roche) according to the manufacturer's instructions. After 48 hours cells were lysed and analyzed utilizing the Dual Luciferase Reporter Assay system (Promega).

uncomplexed β-catenin [6] = assay: Uncomplexed β-catenin in A1847 ovarian tumor cells; format: cell-based, human; details: FRP1-HA retrovirus
Protocol: as §2, §3

cyclin D1 = assay: Northern blot of Cyclin D1 in HCT116 clone; format: cell-based, human; details: HCT116 wild type allele-containing clone
Text: as §4

| Molecule | uncomplexed β-catenin induced by exogenous β-catenin (uncomplexed β-catenin [1]) | up-regulated β-catenin levels (uncomplexed β-catenin [2]) | uncomplexed β-catenin levels (uncomplexed β-catenin [3]; HCT116 clone containing only the mutant β-catenin allele) | β-catenin levels (uncomplexed β-catenin [3]; HCT116 wild type β-catenin allele-containing clone) | constitutively up-regulated β-catenin (uncomplexed β-catenin [4]) | Id2 transcript level (ID2) | TCF-dependent reporter activity [5] | constitutively up-regulated β-catenin (uncomplexed β-catenin [6]) | expression of Cyclin D1 (cyclin D1) |
| --- | --- | --- | --- | --- | --- | --- | --- | --- | --- |
| DKK1: Dickkopf-1, secreted Wnt antagonist protein that binds Wnt co-receptor LRP6; used purified, in conditioned media or retrovirally expressed with HA tag (protein, UniProt O94907 32-266, looked up, HA tag in some uses) Dickkopf-related protein 1: TLNSVLNSNAIKNLPPPLGGAAGHPGSAVSAAPGILYPGGNKYQTIDNYQPYPCAEDEECGTDEYCASPTRGGDAGVQICLACRKRRKRCMRHAMCCPGNYCKNGICVSSDQNHFRGEIEETITESFGNDHSTLDGYSRRTTLSSKMYHTKGQEGSVCLRSSDCASGLCCARHFWSKICKPVLKEGQVCTKHRRKGSHGLEIFQRCYCGEGLSCRIQKDHHQASNSSRLHTCQRH | no effect | striking inhibition of up-regulated β-catenin levels | – | – | – | – | – | – | – |
| FRP1: human secreted Frizzled Related Protein 1, Wnt antagonist; expressed from pBabe-derived retrovirus with carboxy-terminal HA tag (protein, UniProt Q8N474 32-314, looked up, C-terminal HA tag, human secreted Frizzled Related Protein 1, Wnt antagonist; expressed from pBabe-derived retrovirus with carboxy-terminal HA tag) Secreted frizzled-related …: SEYDYVSFQSDIGPYQSGRFYTKPPQCVDIPADLRLCHNVGYKKMVLPNLLEHETMAEVKQQASSWVPLLNKNCHAGTQVFLCSLFAPVCLDRPIYPCRWLCEAVRDSCEPVMQFFGFYWPEMLKCDKFPEGDVCIAMTPPNATEASKPQGTTVCPPCDNELKSEAIIEHLCASEFALRMKIKEVKKENGDKKIVPKKKKPLKLGPIKKKDLKKLVLYLKNGADCPCHQLDNLSHHFLIMGRKVKSQYLLTAIHKWDKKNKEFKNFMKKMKNHECPTFQSVFK | – | – | little if any effect | dramatic reduction | inhibition of constitutively up-regulated β-catenin | reduction | able to inhibit | inhibition of constitutively up-regulated β-catenin | dramatically inhibited |
